Publication PMC11088704, “Structural basis for the regulation of plant transcription factor WRKY33 by the VQ protein SIB1” (Communications Biology, 2024)

Tests used:
WRKY33_C = WRKY33_C (Arabidopsis thaliana, UniProt Q8S8P5 345-422); assay: EMSA; no SIB1; estimated from band intensity (an earlier response in the peer review file prints 150 uM, called sub-micromolar); EMSA: NMR buffer (composition not given in material) with 100 mM NaCl, 1.0 ng dsDNA in 20 ul, room temperature 20 min, SIB1:WRKY33_C 2:1; gel in 0.5x TBE, GelRed stain; details: protein: recombinant; tags: C-terminal 6xHis; blunt
[1] = molecular target: T1, WRKY33_C-I358D mutant protein (Arabidopsis thaliana, UniProt Q8S8P5 331-422, I358D); assay: NMR titration; 2D 1H-15N HSQC of 15N-labeled WRKY33_C (or its mutants), 0.1 mM, with SIB1 or SIB1 peptides added at 2:1 (5:1 also for SIB1^40–60 and SIB1^55–69); 30 mM MES pH 6.0, 50 mM NaCl, 20 uM ZnSO4, 10% D2O, 25 °C; details: both partners purified
T1 construct: WRKY33, Arabidopsis, C-terminal DBD; source: E. coli BL21(DE3), purified (Ni-NTA, gel filtration Superdex-75)

[2] = molecular target: T2, WRKY33_C-I360D mutant protein (Arabidopsis thaliana, UniProt Q8S8P5 331-422, I360D); assay: as above; details: both partners purified
T2 construct: WRKY33, Arabidopsis, C-terminal DBD; source: E. coli BL21(DE3), purified (Ni-NTA, gel filtration Superdex-75)

[3] = molecular target: T3, spin-labeled WRKY33_C K376C (Arabidopsis thaliana, UniProt Q8S8P5 331-422, K376C, Cys376 labelled with N-[2-maleimidoethyl]ethylenediamine-N,N,N',N'-tetraacetic acid monoamide, chelating Mn^2+ (paramagnetic) or Ca^2+); assay: NMR titration; 2D 1H-15N HSQC of 15N-labeled SIB1 free and in complex with unlabeled WRKY33_C or its mutants; 30 mM MES pH 6.0, 50 mM NaCl, 20 uM ZnSO4, 25 °C; details: both partners purified
T3 construct: WRKY33, Arabidopsis, C-terminal DBD; also called K376C spin-labeled; Ca^2+-chelated WRKY33_C mutant; source: E. coli, purified as the wild type; labelled, then purified on a cation exchange column

WRKY33_C K376C mutant = molecular target: T4, WRKY33_C K376C mutant (Arabidopsis thaliana, UniProt Q8S8P5 331-422, K376C); assay: as above; details: both partners purified
T4 construct: WRKY33, Arabidopsis, C-terminal DBD; The mutant without the maleimide-EDTA tag; source: E. coli, expressed and purified similarly to the wild-type protein

[4] = molecular target: T5, spin-labeled WRKY33_C R366C (Arabidopsis thaliana, UniProt Q8S8P5 331-422, R366C, Cys366 labelled with N-[2-maleimidoethyl]ethylenediamine-N,N,N',N'-tetraacetic acid monoamide, chelating Mn^2+ (paramagnetic) or Ca^2+); assay: as above; details: both partners purified
T5 construct: WRKY33, Arabidopsis, C-terminal DBD; also called R366C spin-labeled; Ca^2+-chelated WRKY33_C mutant; source: E. coli, purified as the wild type; labelled, then purified on a cation exchange column

[5] = molecular target: T6, spin-labeled WRKY33_C D357C (Arabidopsis thaliana, UniProt Q8S8P5 331-422, D357C, Cys357 labelled with N-[2-maleimidoethyl]ethylenediamine-N,N,N',N'-tetraacetic acid monoamide, chelating Mn^2+ (paramagnetic) or Ca^2+); assay: as above; details: both partners purified
T6 construct: WRKY33, Arabidopsis, C-terminal DBD; also called D357C spin-labeled; Ca^2+-chelated WRKY33_C mutant; source: E. coli, purified as the wild type; labelled, then purified on a cation exchange column

WRKY33_C R366C mutant = molecular target: T7, WRKY33_C R366C mutant (Arabidopsis thaliana, UniProt Q8S8P5 331-422, R366C); assay: as above; details: both partners purified
T7 construct: WRKY33, Arabidopsis, C-terminal DBD; also called R336 (as printed once); source: E. coli, expressed and purified similarly to the wild-type protein

WRKY33_C D357C mutant = molecular target: T8, WRKY33_C D357C mutant (Arabidopsis thaliana, UniProt Q8S8P5 331-422, D357C); assay: as above; details: both partners purified
T8 construct: WRKY33, Arabidopsis, C-terminal DBD; The mutant without the maleimide-EDTA tag; source: E. coli, expressed and purified similarly to the wild-type protein

[6] = molecular target: T9, WRKY33 C-terminal DNA-binding domain (WRKY33_C) (Arabidopsis thaliana, UniProt Q8S8P5 331-422); assay: cross-linking; EGS crosslinker, 30-fold molar excess; WRKY33_C and SIB1 each 90 uM; 20 mM HEPES pH 7.0, 50 mM NaCl; room temperature; Tricine-SDS-PAGE; details: both partners purified
T9 construct: it holds I350 and the truncation V352-A422 is derived from it; Zinc-finger domain; 20 uM ZnSO4 in the buffers; Construct limits may be read from PDB 8K31; also called WRKY33 cDBD; WK33; source: E. coli BL21(DE3), purified (Ni-NTA, gel filtration Superdex-75)

[7] = molecular target: T9, WRKY33 C-terminal DNA-binding domain …; assay: SEC; Superdex-75; Trx-SIB1 incubated with WRKY33_C before loading; protein standards for calibration; details: both partners purified
WRKY33_C V351A mutant = molecular target: T10, WRKY33_C V351A mutant (Arabidopsis thaliana, UniProt Q8S8P5 331-422, V351A); assay: NMR titration; 2D 1H-15N HSQC of 15N-labeled WRKY33_C (or its mutants), 0.1 mM, with SIB1 or SIB1 peptides added at 2:1 (5:1 also for SIB1^40–60 and SIB1^55–69); 30 mM MES pH 6.0, 50 mM NaCl, 20 uM ZnSO4, 10% D2O, 25 °C; details: both partners purified
T10 construct: WRKY33, Arabidopsis, C-terminal DBD; source: E. coli BL21(DE3), purified (Ni-NTA, gel filtration Superdex-75)

WRKY33_C I350A mutant = molecular target: T11, WRKY33_C I350A mutant (Arabidopsis thaliana, UniProt Q8S8P5 331-422, I350A); assay: as above; details: both partners purified
T11 construct: WRKY33, Arabidopsis, C-terminal DBD; source: E. coli BL21(DE3), purified (Ni-NTA, gel filtration Superdex-75)
T11 sequence (Q8S8P5 331-422 I350A): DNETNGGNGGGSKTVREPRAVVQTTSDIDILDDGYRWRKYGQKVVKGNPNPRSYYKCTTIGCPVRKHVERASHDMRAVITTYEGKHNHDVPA

T9 sequence (Q8S8P5 331-422): as the sequence (Q8S8P5 331-422 I350A) above, with A20I counted along it
T1 sequence (Q8S8P5 331-422 I358D): as the sequence (Q8S8P5 331-422 I350A) above, with A20I, I28D counted along it
T7 sequence (Q8S8P5 331-422 R366C): as the sequence (Q8S8P5 331-422 I350A) above, with A20I, R36C counted along it
T5 sequence (Q8S8P5 331-422 R366C): as the sequence (Q8S8P5 331-422 I350A) above, with A20I, R36C counted along it
T3 sequence (Q8S8P5 331-422 K376C): as the sequence (Q8S8P5 331-422 I350A) above, with A20I, K46C counted along it
T4 sequence (Q8S8P5 331-422 K376C): as the sequence (Q8S8P5 331-422 I350A) above, with A20I, K46C counted along it
Sequence of WRKY33_C (Q8S8P5 345-422): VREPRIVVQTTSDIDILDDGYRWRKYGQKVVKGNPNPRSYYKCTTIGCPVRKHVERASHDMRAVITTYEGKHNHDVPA
T2 sequence (Q8S8P5 331-422 I360D): as the sequence (Q8S8P5 331-422 I350A) above, with A20I, I30D counted along it
T6 sequence (Q8S8P5 331-422 D357C): as the sequence (Q8S8P5 331-422 I350A) above, with A20I, D27C counted along it
T8 sequence (Q8S8P5 331-422 D357C): as the sequence (Q8S8P5 331-422 I350A) above, with A20I, D27C counted along it
T10 sequence (Q8S8P5 331-422 V351A): as the sequence (Q8S8P5 331-422 I350A) above, with A20I, V21A counted along it

B1: W-box DNA (dsDNA)
DNA 1: AAAGTTGACCAA
DNA 2: TTGGTCAACTTT
Kd (WRKY33_C): ~150 nM

B2: SIB1^mini-V51R mutant peptide (peptide, UniProt Q9LDH1 46-69, looked up)
peptide: SNPMRRQTCASKFRELVQELTGQD
notes: SIB1 (VQ23), Arabidopsis, residues 46-69 with V51R
binding result [1]: binds
binding result [2]: binds

B3: SIB1^11-100 (T11-L100 segment of Arabidopsis sigma factor-binding protein SIB1) (domain or fragment, Arabidopsis thaliana, UniProt Q9LDH1 11-100, looked up)
chain: TTSLDKKKPSPVSRKSPKQKKKTTSTNKPIKVRYISNPMRVQTCASKFRELVQELTGQDAVDLQPEPIYSPSSDDHNLSPPAENLAPRVL
notes: SIB1 (VQ23), Arabidopsis, residues T11-L100; the N-terminal chloroplast targeting signal and the C-terminal 51 residues are deleted; Used unlabelled, 15N- or 13C/15N-labelled; also called VQ23; source: E. coli BL21(DE3), purified (Ni-NTA, gel filtration Superdex-75)
binding result [3]: binds
binding result (WRKY33_C K376C mutant): binds
binding result [4]: binds
binding result [5]: binds
binding result (WRKY33_C R366C mutant): binds
binding result (WRKY33_C D357C mutant): binds
stoichiometry N [6]: 1

B4: Trx-SIB1 fusion protein (thioredoxin-fused SIB1) (domain or fragment, Arabidopsis thaliana, UniProt Q9LDH1 11-100, looked up)
chain: B3 chain
notes: SIB1 (VQ23), Arabidopsis; limits are not restated for the Trx fusion; The methods give 24 kDa for 'Trx'
stoichiometry N [7]: 1

B5: SIB1^mini (SIB1^46–69 peptide, minimal SIB1 construct) (peptide, UniProt Q9LDH1 46-69, looked up)
peptide: SNPMRVQTCASKFRELVQELTGQD
notes: SIB1 (VQ23), Arabidopsis, residues 46-69: the VQ motif and its preceding segment; source: synthetic peptide
binding result (WRKY33_C V351A mutant): binds
binding result (WRKY33_C I350A mutant): binds
